Molecular target: T1, tau in human tauopathy brain tissue (neurofibrillary tangles) (Homo sapiens, UniProt P10636)
T1 construct: microtubule associated protein tau, human, endogenous in brain; also called NFT tau; tau pathology in AD, FTD and PSP cases; source: endogenous, formalin fixed paraffin embedded human brain tissue (hippocampal region; AD, FTD, PSP cases)
Experiment: immunostaining of cells or tissue; paraffin sections of mouse brain (rTg4510 and nontransgenic; 4.5, 6, 8.5, 10 months) or of human hippocampal tissue; citrate antigen retrieval; MHT2 overnight; ABC/DAB detection

T1 sequence (P10636 whole entry): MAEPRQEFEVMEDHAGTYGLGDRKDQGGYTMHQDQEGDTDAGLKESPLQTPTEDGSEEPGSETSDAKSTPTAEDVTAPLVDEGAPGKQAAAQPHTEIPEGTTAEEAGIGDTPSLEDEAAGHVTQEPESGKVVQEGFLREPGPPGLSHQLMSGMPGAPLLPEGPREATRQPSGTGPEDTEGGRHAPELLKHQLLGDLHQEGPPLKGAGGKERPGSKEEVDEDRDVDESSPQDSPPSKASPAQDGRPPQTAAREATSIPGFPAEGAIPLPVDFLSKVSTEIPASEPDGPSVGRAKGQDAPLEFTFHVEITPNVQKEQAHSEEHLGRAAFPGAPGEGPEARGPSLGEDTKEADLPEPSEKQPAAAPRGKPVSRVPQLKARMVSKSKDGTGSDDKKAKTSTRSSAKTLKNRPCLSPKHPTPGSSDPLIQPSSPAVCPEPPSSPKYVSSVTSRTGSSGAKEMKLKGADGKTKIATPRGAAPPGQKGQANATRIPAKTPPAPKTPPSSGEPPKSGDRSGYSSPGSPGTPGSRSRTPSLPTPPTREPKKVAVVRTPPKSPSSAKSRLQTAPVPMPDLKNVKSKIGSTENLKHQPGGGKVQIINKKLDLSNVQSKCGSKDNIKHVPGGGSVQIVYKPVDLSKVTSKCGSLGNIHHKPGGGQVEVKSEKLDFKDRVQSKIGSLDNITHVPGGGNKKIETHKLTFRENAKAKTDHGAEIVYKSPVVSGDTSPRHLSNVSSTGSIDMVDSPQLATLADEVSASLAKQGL

binding result: binds
B1: MHT2 monoclonal antibody (antibody, V domains shown)
VH: EVQLQQSGAELVRPGALVKLSCKASGFNIKDYYMHWVKQRPEQGLEWIGWIDPENGNTIYDPKFQGKASITADTSSNTAYLQLSSLTSEDTAVYYCSSYYDYDYWG
VL: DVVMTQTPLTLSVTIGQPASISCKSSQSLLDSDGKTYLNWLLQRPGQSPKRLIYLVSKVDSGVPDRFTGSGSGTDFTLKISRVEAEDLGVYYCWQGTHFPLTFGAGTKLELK
notes: Isotype IgG1; For the BLI experiment only, the antibody was biotinylated with EZ-Link NHS-PEG4 and held on streptavidin sensors; also called antibody MHT2
